In experiment [1] the target is FXa. Put plainly: enzyme inhibition kinetics (amidolytic activity); thrombin (36.6 nM; 3.0 µl, 10 NIH/ml) with chromogenic substrate T1637 or FXa (0.13 µM) with F3301, lunathrombase 0-0.4 µM; Michaelis-Menten fit; competitive model for thrombin, non-competitive model for FXa.
Experiment [2] has as its target human thrombin (human). The description is as above.
Experiment [3] concerns the target FXa.
The target of experiment [4] is FXa. Put plainly: other fluorescence titration; thrombin, FXa or fibrinogen (0.2 µM each) incubated with lunathrombase (0.2-1.0 µM in the methods, 0.2-1.4 µM in the legend) for 3 min at room temperature; excitation 280 nm, emission 300-425 nm; one site saturation binding curve.
A further experiment addresses human fibrinogen (human) (UniProt P02671). The description is as above.
Experiment [5] has as its target human thrombin (human). The description is as above.

Consider 1 substance from PMC5906637.

As a reminder, the Ki is a measure of affinity in units of concentration, obtained from inhibition or displacement. What is called Kd is the constant that tells how readily two partners part at equilibrium. Low readings indicate a tighter complex, high ones a looser complex. Regarding lunathrombase (enzyme), the values for the Ki with FXa [1] and with human thrombin (human) [2] were 10.3 nM and 26.9 nM, respectively. The inhibition of prothrombin (1.4 µM) activation by FXa (0.13 µM) pre-incubated with lunathrombase (0.2 µM), SDS-PAGE with FXa [3] was 100%. In addition, the Kd came out at 1910 nM with FXa [4], 552 nM with human fibrinogen (human) and 249 nM with human thrombin (human) [5].
